Experimental data reported in the nanobody polyreactivity screen of Harvey et al. (2022).

Experiment: yeast display, Sf9 membrane polyspecificity reagent, FACS + sequencing; frameworks hold sequencing errors
Summary of the method: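 Synthetic nanobody libraries on Saccharomyces cerevisiae BJ5465 were galactose-induced for 36–48 hours, stained 1 hour at 4 °C with 10% biotinylated, detergent-solubilized Sf9 membrane reagent and enriched on streptavidin microbeads. FACS then separated cells into low and high (top ~1%) gates by anti-HA (expression) and streptavidin (reagent binding) fluorescence. Genes were colony-PCR amplified, MiSeq 2 × 250 sequenced and CDR-length filtered. A clone's polyreactivity label is that of its gate of origin.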
With “QVQLVESGGGLVQAGGSLRLSCAASGSILGPYAMGWYRQAPGKERELVAAISQSGARTYYADSVKGRFTISRDNAKNTVYLQMNSLKPEDTAVYYCAAQSRKGGWSAYYYWGQGTQVTVSS” the “polyreactivity (PSR sort gate)” value was “high polyreactivity”. With “QVQLVESGGGLVQAGGSLRLSCAASGSILGQNGMGWYRQAPWKERELVAGITWSGGSTYYADSVKGRFTISRDNAKNTVYLQMNSLKPEDTAVYYCARRGYYAPYYYWGQGTQVTVSS” the “polyreactivity (PSR sort gate)” value was “high polyreactivity”. In the case of “QVQLVESGGGLVQAGGSLRLSCAASGSILGQYTMGWYRQAPGKERELVAGISSGGSTNYADSVKGRFTISRDNAKNTVYLQMNSLKPEDTAVYYCNKDGAFHWVGSDPVYLFEYWGQGTQVTVSS”, the “polyreactivity (PSR sort gate)” value is reported as “low polyreactivity”. For “QVQLVESGGGLVQAGGSLRLSCAASGSILGSNVMGWYRQAPGKERELVAAITSGDSTNYADSVKGRFTISRDNAKNTVYLQMNSLKPEDTAVYYCAKPYSVAPAAVLNWYLGYEYWGQGTQVTVSS”, the “polyreactivity (PSR sort gate)” value was “low polyreactivity”. For “QVQLVESGGGLVQAGGSLRLSCAASGSILGYYAMGWYRQEPGKERELVAAISGRGGSTYYADSVKGRFTISRDNAKNSVYLHMNSLKPEDTAVYYCAVVWGSYYWGQGGGEYWGQGTQVTVSS”, the “polyreactivity (PSR sort gate)” value was “high polyreactivity”. In the case of “QVQLVESGGGLVQAGGSLRLSCAASGSILHLYAMGWYRQAPGKERELVARINSGGTTNYADSVKGRFTISRDNAKNTVYLQMNSLKPEDTAVYYCAARFTPYITSDVGHYDYWGQGTQVTVSS”, the “polyreactivity (PSR sort gate)” value is reported as “low polyreactivity”. In the case of “QVQLVESGGGLVQAGGSLRLSCAASGSILKFNAMGWNRQAPGKERELVAAITRGTNTYYADSVKGRFTISRDNAKNTVYLQMNTLKPEDTAVYYCAARLPYNAIGYYYWGQGTQVTVSS”, the “polyreactivity (PSR sort gate)” value is reported as “low polyreactivity”. With “QVQLVESGGGLVQAGGSLRLSCAASGSILKFNAMGWYRQAPGKERELVAAITRGTNTYYADSVKGRFTISRDNANNTFFLQMNSLKPEDTAVYYCAARLPYNAIGYYYWGQGTQVTVSS” the “polyreactivity (PSR sort gate)” value was “low polyreactivity”. In the case of “QVQLVESGGGLVQAGGSLRLSCAASGSILLRNAMGWYRQAPGKERELVAAISRDGGSTYADSVKGRFTISRDNAKNTVYLQMNSLKPEDTAVYYCAKRSYWYDYWGQGTQVTVSS”, the “polyreactivity (PSR sort gate)” value is reported as “high polyreactivity”. For “QVQLVESGGGLVQAGGSLRLSCAASGSILLRYAMGWYRQAPGKERELVAAISYDGGGTYYADSVKGRFTISRDNAKNTVYLQMNSLKPEDTAVYYCAADGYSSSGTAYDYWGQGTQVTVSS”, the “polyreactivity (PSR sort gate)” value was “low polyreactivity”. For “QVQLVESGGGLVQAGGSLRLSCAASGSILLYYVMGWYRQAPGKERELVAGISSSGRTYYADSVKGRFTISRDNAKNTVYLQMNSLKPEDTAVYYSAKKYWRGDVRVGYWGQGTQVTVSS”, the “polyreactivity (PSR sort gate)” value was “high polyreactivity”. With “QVQLVESGGGLVQAGGSLRLSCAASGSILPGNAMGWYRQAPGKEREFVAAISKSGGRTNYADSVKGRFTISRDNAKNTVYLQMNSLKPEDTAVYYCAARRSTGYGKSNLYNYWGQGTQVTVSS” the “polyreactivity (PSR sort gate)” value was “high polyreactivity”. In the case of “QVQLVESGGGLVQAGGSLRLSCAASGSILPYYAMGWYRQAQGKERELLATITDGTDTYYADSVKGRFTISRDNAKNTVYLPMNSLKPEDTAVYYCNADGYVYYLHEDYWGQGTQVTVSS”, the “polyreactivity (PSR sort gate)” value is reported as “low polyreactivity”. In the case of “QVQLVESGGGLVQAGGSLRLSCAASGSILQHYAMGWYRQAPGKERELVASISWTGGSTYYADSVKGRFTISRDNAKNTVYLQMNSLKPEDTAVYYCAARRYRYYSRGSWGQGTQVTVSS”, the “polyreactivity (PSR sort gate)” value is reported as “high polyreactivity”. In the case of “QVQLVESGGGLVQAGGSLRLSCAASGSILQPIYAMGWYRQAPGKERELVAAISASGGSTYYADSVKGRFTISRDNAKNTVYLQMNSLKPEDTAVYYCNKVGYYASVLGYDYWGQGTQVTVSS”, the “polyreactivity (PSR sort gate)” value is reported as “high polyreactivity”. For “QVQLVESGGGLVQAGGSLRLSCAASGSILRKYAMGWYRQAPGKERELVAAISWSGGSTYYADSVKGRFTISRDNAKNTVYVQMNSLKPEDTAVYYCNRDGLSRPYYYWGQGTQVTVSS”, the “polyreactivity (PSR sort gate)” value was “high polyreactivity”. In the case of “QVQLVESGGGLVQAGGSLRLSCAASGSILRSNAMGWYRQAPGKERELVAAITFNGGSTYADSVKGRFTISRDNAKNTVYLQMNSLKPEDTAVYYCATGDGPSLFDYWGQGTQVTVSS”, the “polyreactivity (PSR sort gate)” value is reported as “low polyreactivity”. In the case of “QVQLVESGGGLVQAGGSLRLSCAASGSILRYYAKGWYRQAPGKERELVASINWSGGSTYYADSVKGRFTISRDNAKNTVYLQMNSLKPEDTAVYYCAARRRSAEYNYWGQGTQVTVSS”, the “polyreactivity (PSR sort gate)” value is reported as “high polyreactivity”. With “QVQLVESGGGLVQAGGSLRLSCAASGSILSAYDMGLYRKAPGKDRELVAAIHSSGGSTYYADSVKGRFTISRDNAKNTVYLQMNSLKPEDTAVYYCAATSLAGYYQFDYWGQGTQVTVSS” the “polyreactivity (PSR sort gate)” value was “low polyreactivity”. For “QVQLVESGGGLVQAGGSLRLSCAASGSILSFNAMGWDRQAPGNERELVAAISRGGSTNYADSVKGRFTISRDNAKNTVYLQMNSLKPEDTAVYYCAAVQYRYSTRWARRAYDYWGQGTQVTVSS”, the “polyreactivity (PSR sort gate)” value was “high polyreactivity”. With “QVQLVESGGGLVQAGGSLRLSCAASGSILSPYAMGWYRQAPGKERELVAAISRSGDRTYYADSVKGRFTISRDNAKNTVYLQMNSLKPEDTAVYYCAAEYSWPWDYYYWGQGTQVTVSS” the “polyreactivity (PSR sort gate)” value was “high polyreactivity”. With “QVQLVESGGGLVQAGGSLRLSCAASGSILTDNAMGWYRQAPGKERELVASITGSGGSTYYADSVKGRFTISRDNAKNSVYLQMNSLKRVDTAVYYCAASYRLRYGYWGQGTQVTVSS” the “polyreactivity (PSR sort gate)” value was “high polyreactivity”. With “QVQLVESGGGLVQAGGSLRLSCAASGSILTENAMGWYRQAPGKERELVAAISRSGGRTYYADSVKGRFTISRDNAKNTVYLQMNSLKPEDTAVYYCAAEYWTVGYYYSLESDYWGQGTQVTVSS” the “polyreactivity (PSR sort gate)” value was “low polyreactivity”. For “QVQLVESGGGLVQAGGSLRLSCAASGSILTFYAMGWYRQAPGKERELVAAITWRGGSTYYAYSVKGRFTISRDNAKNTVYLQMNSLKPEDTAVYYCAAEQVGYYLNWRDYWGQGTQVTVSS”, the “polyreactivity (PSR sort gate)” value was “high polyreactivity”. With “QVQLVESGGGLVQAGGSLRLSCAASGSILTPNAMGWYRQAPGKERELVATISKGGGRTYYADSVKGRFTISRDNAKNTVYLQMNSLKPEDTAVYYCAADARRNSPGNYWGQGTQVTVSS” the “polyreactivity (PSR sort gate)” value was “high polyreactivity”. With “QVQLVESGGGLVQAGGSLRLSCAASGSILTPYAMGWYRQAPGKERELVAAISWGDGSTYYADSVKGRFTISRDNAKNTVYLQMNSLKPEDTAVYYCAAVSYYGVDQYRITVYTYEYWGQGTQVTVSS” the “polyreactivity (PSR sort gate)” value was “low polyreactivity”. In the case of “QVQLVESGGGLVQAGGSLRLSCAASGSILTYYAMGWYRQAPGKERELVAAINNIGGSTYYADSVKGRFTISRDNAKNTVYLQMNSLKPEDTAVYYCAKYYAWPYDYWGQGTQVTVSS”, the “polyreactivity (PSR sort gate)” value is reported as “low polyreactivity”. For “QVQLVESGGGLVQAGGSLRLSCAASGSILVNAIGWYRQAPGKEREFVAAISSGGSTKYADSVKGRFTMSRDNATNTDYLLMNSLKPEDTEVYYCAARVVTSRLSGGTTHPFILYYWGQGTQVTVSS”, the “polyreactivity (PSR sort gate)” value was “high polyreactivity”. In the case of “QVQLVESGGGLVQAGGSLRLSCAASGSILVPNAMGWYRQAPGKERELVAGISANGGSTYYADSVKGRFTISRDNANNTVYLQMNSLKPEDTAVYYCNARLYWDWYGDDYWVQGTQVTVSS”, the “polyreactivity (PSR sort gate)” value is reported as “low polyreactivity”. In the case of “QVQLVESGGGLVQAGGSLRLSCAASGSILWYNGLGWYRQAPGKEMELVAAITSGGSTNYADSVKGRFTISRDNAKNTVYLQMNSLKQEDTAVYYCATRHSKYGYEYDYWGQGTQVTVSS”, the “polyreactivity (PSR sort gate)” value is reported as “low polyreactivity”.
